According to PMC5898196 (Science (New York, N.Y.), 2017):

Molecular target: the molecule itself
Assay: cryo-EM structure

B1: Recombinant full-length human TRPM4 (hTRPM4b) (natural protein)
chain: not shown
modifications: glycan at Asn992
Which “stoichiometry N” value does the source give for B1 here?
The value was 4.
